Target: SARS-COV-2 RBD-his tag protein (Sino Biological) (SARS-CoV-2) (UniProt P0DTC2)
Assay: ELISA, SARS-CoV-2-WA-1 RBD coated, antibody titrated

Work on S309 (Sotrovimab) (antibody) yielded an EC50 of 2 ng/mL.

From patent US20240228595A1
